Data as given in patent US20230190925A1 (CENTRE NATIONAL DE LA RECHERCHE SCIENTIFIQUE CNRS, published 2023).

T1: empty phage T5 capsid, undecorated, produced from the mutant phage T5stAmN5-Δdec (UniProt Q6QGD8 160-458; Q6QGD5 11-403)
T1 chain 1: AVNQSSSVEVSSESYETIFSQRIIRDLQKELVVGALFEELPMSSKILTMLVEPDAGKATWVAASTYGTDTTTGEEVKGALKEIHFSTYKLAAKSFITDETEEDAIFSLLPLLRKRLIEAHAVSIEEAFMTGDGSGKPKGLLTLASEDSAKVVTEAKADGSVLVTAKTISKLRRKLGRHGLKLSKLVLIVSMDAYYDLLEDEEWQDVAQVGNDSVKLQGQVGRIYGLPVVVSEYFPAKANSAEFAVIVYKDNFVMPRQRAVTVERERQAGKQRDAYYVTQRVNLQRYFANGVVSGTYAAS
T1 chain 2: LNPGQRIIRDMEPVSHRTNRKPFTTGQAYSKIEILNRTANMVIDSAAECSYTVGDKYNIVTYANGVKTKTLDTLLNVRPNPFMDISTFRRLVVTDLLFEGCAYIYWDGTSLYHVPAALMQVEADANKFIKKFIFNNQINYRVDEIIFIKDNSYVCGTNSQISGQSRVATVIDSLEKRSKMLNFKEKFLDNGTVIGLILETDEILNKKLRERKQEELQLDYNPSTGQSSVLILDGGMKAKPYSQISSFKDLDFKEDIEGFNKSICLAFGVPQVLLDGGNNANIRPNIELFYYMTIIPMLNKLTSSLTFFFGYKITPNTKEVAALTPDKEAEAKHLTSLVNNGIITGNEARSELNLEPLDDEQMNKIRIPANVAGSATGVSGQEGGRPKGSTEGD

T2: recombinant phage T5 capsid produced from plasmid pETcapT5Δdec (assembled in the absence of pb10) (bacteriophage T5, UniProt Q6QGD8 160-458; Q6QGD5 11-403)
T2 construct: also called capsids produced from the plasmid pETcapT5Δdec; pETcapT5Δpb10 capsids
T2 sequence 1: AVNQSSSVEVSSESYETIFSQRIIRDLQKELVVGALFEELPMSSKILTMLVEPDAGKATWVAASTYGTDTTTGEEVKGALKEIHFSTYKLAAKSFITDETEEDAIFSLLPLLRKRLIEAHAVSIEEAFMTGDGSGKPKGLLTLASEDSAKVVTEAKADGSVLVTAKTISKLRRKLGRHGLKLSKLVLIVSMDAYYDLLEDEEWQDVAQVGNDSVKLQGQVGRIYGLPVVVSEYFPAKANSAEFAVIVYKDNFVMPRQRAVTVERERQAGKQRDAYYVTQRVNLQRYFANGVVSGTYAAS
T2 sequence 2: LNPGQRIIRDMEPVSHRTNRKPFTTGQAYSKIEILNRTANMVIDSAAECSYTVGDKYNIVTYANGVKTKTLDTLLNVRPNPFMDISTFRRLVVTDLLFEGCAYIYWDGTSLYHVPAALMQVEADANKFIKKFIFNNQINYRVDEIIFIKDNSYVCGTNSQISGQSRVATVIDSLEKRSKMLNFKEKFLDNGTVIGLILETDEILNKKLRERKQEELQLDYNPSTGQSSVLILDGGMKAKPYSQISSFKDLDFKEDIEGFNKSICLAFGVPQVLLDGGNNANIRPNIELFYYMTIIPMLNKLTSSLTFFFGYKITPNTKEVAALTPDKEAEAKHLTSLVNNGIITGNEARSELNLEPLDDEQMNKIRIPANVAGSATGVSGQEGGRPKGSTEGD

T3: empty phage T5 capsid, undecorated, produced from the mutant phage T5stAmN5-Δdec (bacteriophage T5, UniProt Q6QGD8 160-458; Q6QGD5 11-403)
T3 construct: devoid of DNA and of pb10, expanded form; also called empty capsids; pure empty capsids
T3 sequence 1: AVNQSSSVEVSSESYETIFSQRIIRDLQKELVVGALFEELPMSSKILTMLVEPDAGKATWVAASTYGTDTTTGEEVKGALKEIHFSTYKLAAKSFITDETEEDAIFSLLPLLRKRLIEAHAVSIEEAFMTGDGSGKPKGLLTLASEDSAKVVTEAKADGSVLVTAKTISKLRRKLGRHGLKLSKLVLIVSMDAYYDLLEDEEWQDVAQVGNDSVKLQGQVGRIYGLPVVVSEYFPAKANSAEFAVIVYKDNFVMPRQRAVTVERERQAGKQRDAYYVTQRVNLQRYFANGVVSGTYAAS
T3 sequence 2: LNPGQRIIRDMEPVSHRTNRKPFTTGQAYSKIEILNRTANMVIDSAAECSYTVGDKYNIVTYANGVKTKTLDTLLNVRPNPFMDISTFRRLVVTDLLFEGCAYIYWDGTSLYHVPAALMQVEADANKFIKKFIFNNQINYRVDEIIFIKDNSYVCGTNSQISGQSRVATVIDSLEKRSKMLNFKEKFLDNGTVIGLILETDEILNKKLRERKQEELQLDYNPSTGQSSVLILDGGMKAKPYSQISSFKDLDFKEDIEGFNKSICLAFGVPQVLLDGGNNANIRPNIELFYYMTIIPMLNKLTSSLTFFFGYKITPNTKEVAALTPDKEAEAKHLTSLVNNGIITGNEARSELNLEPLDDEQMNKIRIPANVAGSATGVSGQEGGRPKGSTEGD


What was measured:
[1] = target: T1, empty phage T5 capsid, undecorated, …; test: SPR; 25 °C
[2] = target: T2, recombinant phage T5 capsid produced …; test: native agarose gel retardation
[3] = target: T3, empty phage T5 capsid, undecorated, …; test: native agarose gel retardation, [protein]/[binding sites on the capsid] = 1+/-0.1
[4] = target: T1, empty phage T5 capsid, undecorated, …; test: SPR

Binder	Kd [1] [pM]	binding result [2]	binding result [3]	Kd [4] [pM]
pb10N-Ter-OVAH6 (N-terminal domain of pb10 fused with ovalbumin, His-tagged) (other) MGIDYSGLRTIFGEKLPESHIFFATVAAHKYVPSYAFLRRELGLSSAHTNRKVWKKFVEAYGKAIPPAPPAPPMGSIGAASMEFCFDVFKELKVHHANENIFYCPIAIMSALAMVYLGAKDSTRTQINKVVRFDKLPGFGDSIEAQCGTSVNVHSSLRDILNQITKPNDVYSFSLASRLYAEERYPILPEYLQCVKELYRGGLEPINFQTAADQARELINSWVESQTNGIIRNVLQPSSVDSQTAMVLVNAIVFKGLWEKAFKDEDTQAMPFRVTEQESKPVQMMYQIGLFRVASMASEKMKILELPFASGTMSMLVLLPDEVSGLEQLESIINFEKLTEWTSSNVMEERKIKVYLPRMKMEEKYNLTSVLMAMGITDVFSSSANLSGISSAESLKISQAVHAAHAEINEAGREVVGSAEAGVDAASVSEEFRADHPFLFCIKHIATNAVLFFGRCVSP	1.22			
pb10-OVAH6 (whole protein pb10 fused with ovalbumin, His-tagged) (other) MGIDYSGLRTIFGEKLPESHIFFATVAAHKYVPSYAFLRRELGLSSAHTNRKVWKKFVEAYGKAIPPAPPAPPLTLSKDLTASMSVEEGAALTLSVTATGGTGPYTYAWTKDGSPIPDASGATYTKPTAAAEDAGSYKVTVTDSKQVSKDSTTCAVTVNPTVPGGMGSIGAASMEFCFDVFKELKVHHANENIFYCPIAIMSALAMVYLGAKDSTRTQINKVVRFDKLPGFGDSIEAQCGTSVNVHSSLRDILNQITKPNDVYSFSLASRLYAEERYPILPEYLQCVKELYRGGLEPINFQTAADQARELINSWVESQTNGIIRNVLQPSSVDSQTAMVLVNAIVFKGLWEKAFKDEDTQAMPFRVTEQESKPVQMMYQIGLFRVASMASEKMKILELPFASGTMSMLVLLPDEVSGLEQLESIINFEKLTEWTSSNVMEERKIKVYLPRMKMEEKYNLTSVLMAMGITDVFSSSANLSGISSAESLKISQAVHAAHAEINEAGREVVGSAEAGVDAASVSEEFRADHPFLFCIKHIATNAVLFFGRCVSP	2.34			
decoration protein pb10 of phage T5 (other, Monomeric; also called native protein pb10; pb10 H6) MGIDYSGLRTIFGEKLPESHIFFATVAAHKYVPSYAFLRRELGLSSAHTNRKVWKKFVEAYGKAIPPAPPAPPLTLSKDLTASMSVEEGAALTLSVTATGGTGPYTYAWTKDGSPIPDASGATYTKPTAAAEDAGSYKVTVTDSKQVSKDSTTCAVTVNPTVPGGLE	2.25	binds	binds	1.11
